Reference: patent US20260109770A1 (REMD BIOTHERAPEUTICS, published 2026)
Residue numbers refer to the chain shown, from its start.

T1: human CCR4 (hCCR4) (human, UniProt P51679 1-360)
T1 construct: whole, on cells
T1 sequence (looked up): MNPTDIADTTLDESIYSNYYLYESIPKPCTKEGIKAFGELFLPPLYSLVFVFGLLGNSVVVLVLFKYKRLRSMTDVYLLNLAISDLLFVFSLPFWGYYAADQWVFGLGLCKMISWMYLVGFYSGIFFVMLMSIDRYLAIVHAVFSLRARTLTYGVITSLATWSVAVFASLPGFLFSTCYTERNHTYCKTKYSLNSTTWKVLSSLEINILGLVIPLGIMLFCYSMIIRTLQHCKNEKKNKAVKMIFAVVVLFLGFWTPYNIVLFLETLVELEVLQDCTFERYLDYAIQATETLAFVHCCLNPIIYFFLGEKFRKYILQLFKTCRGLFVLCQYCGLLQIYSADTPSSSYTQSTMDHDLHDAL

B1: mouse antibody 419C7B3B2 (MAb 4) (antibody, V domains shown)
VH: EVQLQQSGPELVKPGSSVKISCKASGYTFTDYNMDWVKQSHGKSLEWIGAINPNNGGTGYTQKFKGKATLTVDKSSSTAFMELRSLTSEDSAVYYCARRGVYMFAYWGQGTLVTVSA
VL: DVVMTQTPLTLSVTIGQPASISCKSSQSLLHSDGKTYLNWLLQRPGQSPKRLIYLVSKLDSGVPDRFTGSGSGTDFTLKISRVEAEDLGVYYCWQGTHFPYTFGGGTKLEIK
B2: mouse antibody 530H3G7D9 (MAb 12) (antibody, V domains shown)
VH: EVQLVESGGGLVQPKGSLKLSCAASGFSFNTYAMNWVRQAPGKGLDWVARIRSKSNNYATYYADSVKDRFTISRDDSESMLYLQMNNLKTEDTAMYFCVRQTYGSRDYAMDYWGQGTSVTVSS
VL: DVVMTQTPLSLPVSLGDQASISCRSSQSLVHSNGNTYLHWYLQKPGQSPKLLIYKVSNRFSGVPDRFSGSGSGTDFTLKISRVEAEDLGVYFCCQSTHVPPYTFGGGTKLEIK
B3: mouse antibody 538H5G10 (MAb 19) (antibody, V domains shown)
VH: B2 VH with T31A, D46E, Y58F, F97Y
VL: B2 VL with Q18R, K50R, C94S, S96N
B4: mouse antibody 531B9B1C9 (MAb 13) (antibody, V domains shown)
VH: B2 VH with T31A
VL: B2 VL
B5: mouse antibody 509H4E10B3 (MAb 15) (antibody, V domains shown)
VH: B2 VH with K15R, T31A, D46E, Y58F, F97Y
VL: B2 VL with Q18R, K50R, C94S
B6: mouse antibody 46A5C4B1 (MAb 2) (antibody, V domains shown)
VH: EVQLVESGGGLVQPKGSLKLSCAASGFSFNAYAMNWVRQAPGKGLEWVARIRSKSNNYATYYADSVKDRFIISRDDSESMLYLQMNNLKTEDTAMYFCVRGGTYGSTSYFDYWGQGTTLTVSS
VL: DIVMTQAAPSVPVTPGESVSISCRSSKSLLHSNGNTYLYWFLQRPGQSPQLLIYRMSNLASGVPDRFSGSGSGTAFTLRISRVEAEDVGVYYCMQHLEYPFTFGGGTKLEIK
notes: Mouse monoclonal antibody from a hybridoma; also called A2
B7: mouse antibody 525F2F3F11 (MAb 11) (antibody, V domains shown)
VH: EVQLVESGGGLVQPKGSLKLSCAASGFSFNTYAMNWVRQAPGKGLEWVARIRTKSNNYATYYADSVKDRFTISRDDSENMLYLQMNNLKTEDTAMYYCVRGGSGLRYVRYFDVWGTGTTVTVSS
VL: B6 VL with A8T, D65E, T74S, I80V, G105S
B8: mouse antibody 507B6B10 (MAb 14) (antibody, V domains shown)
VH: B7 VH with T53S, N79S, L105I
VL: B6 VL with L30Q, T36I, T74S, G105S
B9: mouse antibody 508C11A12 (MAb 5) (antibody, V domains shown)
VH: B7 VH with M80I, L105I, R106K
VL: B6 VL with D65E, T74S, G105S
B10: mouse antibody 531A3E12H8 (MAb 17) (antibody, V domains shown)
VH: B7 VH with Y61F, D75H, N79S, L105I
VL: B6 VL with P12T, N58D, T74S, G105S
B11: mouse antibody 506G6G5 (MAb 8) (antibody, V domains shown)
VH: B7 VH with T53S, N79S, L105I, R106S
VL: B6 VL with T74S, G105S
B12: mouse antibody 516D7D12 (MAb 10) (antibody, V domains shown)
VH: B7 VH with N79S
VL: B6 VL with A8T, D65E, T74S, I80V, G105S
B13: mouse antibody 504E12D8D12 (MAb 18) (antibody, V domains shown)
VH: B7 VH with D64A, N79T, R106N
VL: B6 VL with P12F, T14I, T74S, G105S
B14: mouse antibody 526G1C12 (MAb 16) (antibody, V domains shown)
VH: B7 VH with N30K, K43E, N79T, R106N, T116P
VL: B6 VL with P12L, I21F, Y54F, T74S, G105S
B15: mouse antibody 529D10C10 (MAb 6) (antibody, V domains shown)
VH: B7 VH with K15R, T31A, N79S, N86I, L105I, R109K
VL: B6 VL with D65E, T74S, G105S
B16: mouse antibody 531A6A3 (MAb 9) (antibody, V domains shown)
VH: B7 VH with N30K, N79T, R106N
VL: B6 VL with T74S, G105S
B17: mouse antibody 536H9D10 (MAb 7) (antibody, V domains shown)
VH: B7 VH with K15G, T31A, N79S, N86I, L105I, R109K
VL: B6 VL with D65E, T74S, G105S
B18: mouse antibody 41E1C2A5 (MAb 1) (antibody, V domains shown)
VH: B6 VH with I71T, S79T, T107S
VL: B6 VL with S22P, E110Q, K112R
notes: Mouse monoclonal antibody from a hybridoma; also called A1
B19: mouse antibody 80E4D1F11 (MAb 3) (antibody, V domains shown)
VH: B6 VH with A31T, D68A, I71T
VL: B6 VL
notes: Mouse monoclonal antibody from a hybridoma; also called A3
B20: murine-human chimeric (human IgG1) antibody 516D7D12 (antibody, V domains shown)
VH: B7 VH with N79S
VL: DIVMTQATPSVPVTPGESVSISCRSSKSLLHSNGNTYLYWFLQRPGQSPQLLIYRMSNLASGVPERFSGSGSGSAFTLRVSRVEAEDVGVYYCMQHLEYPFTFGSGTKLEIKR
notes: Chimeric antibody derived from murine antibody A10 and human IgG1
B21: murine-human chimeric (human IgG1) antibody 504E12D8D12 (antibody, V domains shown)
VH: B7 VH with D64A, N79T, R106N
VL: B20 VL with T8A, P12F, T14I, E65D, V80I
notes: Chimeric antibody derived from murine antibody A18 and human IgG1; also called chimeric 504E12D8D12 mAb
B22: murine-human chimeric (human IgG1) antibody 525F2F3F11 (antibody, V domains shown)
VH: B7 VH
VL: B20 VL
notes: Chimeric antibody derived from murine antibody A11 and human IgG1
B23: murine-human chimeric (human IgG1) antibody 41E1C2A5 (antibody, V domains shown)
VH: B6 VH with I71T, S79T, T107S
VL: B20 VL with T8A, S22P, E65D, S74T, V80I, S105G, E110Q, K112R

What follows are binders tested against T2, human C-C chemokine receptor type 8 (hCCR8) (human, UniProt P51685 1-355) (assay: cell-based or functional assay).
T2 sequence (P51685 whole entry): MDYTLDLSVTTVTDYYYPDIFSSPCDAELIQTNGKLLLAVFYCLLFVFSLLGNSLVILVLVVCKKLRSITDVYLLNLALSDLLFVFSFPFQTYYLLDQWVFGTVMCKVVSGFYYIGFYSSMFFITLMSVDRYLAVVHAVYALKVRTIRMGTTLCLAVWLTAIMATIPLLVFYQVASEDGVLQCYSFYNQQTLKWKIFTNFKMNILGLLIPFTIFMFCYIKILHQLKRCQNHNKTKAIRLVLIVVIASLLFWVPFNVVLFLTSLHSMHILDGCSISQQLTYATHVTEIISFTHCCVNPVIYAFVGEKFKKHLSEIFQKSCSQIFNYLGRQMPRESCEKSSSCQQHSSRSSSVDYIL

inhibition of β-arrestin production (CCR8 CHO-K1 β-arrestin bioassay, 2 nM hCCL1, subclone supernatant) [%] | Binder
≥ 50 | B1
≥ 50 | B2
≥ 50 | B3
≥ 50 | B4
≥ 50 | B5
≥ 50 | B6
≥ 50 | B7
≥ 50 | B8
≥ 50 | B9
≥ 50 | B10
≥ 50 | B11
≥ 50 | B12
≥ 50 | B13
≥ 50 | B14
≥ 50 | B15
≥ 50 | B16
≥ 50 | B17
≥ 50 | B18
≥ 50 | B19

Biological target: T2, human C-C chemokine receptor type 8 …
Assay: cell-based or functional assay
Remark: another data set of the same source

IC50 (nM), antagonist activity measured by β-arrestin assay [nM] | Binder
1.51 | B20
0.867 | B21
1.52 | B22
6.24 | B6
4.68 | B18
7.11 | B19

The binders below were run against T1, human CCR4 (hCCR4) (assay: flow cytometry on hCCR4-expressing CHO-K1 cells against parental CHO-K1 cells).
Description: The antibodies were further screened for binding to human CCR4 (hCCR4) by flow cytometry. The antibodies were incubated with CHO-K1 cells and hCCR4-expressing CHO-K1 cells for 60 minutes at 4° C. The cells were washed thoroughly with PBS buffer and were then incubated with FITC-conjugated goat anti-mouse IgG Fc antibody or anti-human IgG Fc antibody. Mean Fluorescence Intensity (MFI) of antibody binding on the cells were analyzed by flow cytometry (Table 7).

binding result | Binder
no binding | B20
no binding | B21
no binding | B22
no binding | B6
no binding | B18
no binding | B19

Biological target: T2, human C-C chemokine receptor type 8 …
Assay: cell-based or functional assay
Remark: another data set of the same source

EC50 of ADCC activity (column head prints IC50 (nM)); ADCC/NFAT-reporter-Jurkat bioassay [nM] | Binder
0.015 | B21
0.049 | B23
